Read-outs that look alike come from different tables or passages of the source.

What all share (assay): BLI (Octet RED96), His-tagged TfR ECD on Ni-NTA sensor
A general note: BLI is a label-free optical method that tracks binding on a fibre tip over time.

Assay [1] has as its target T1, recombinant monkey TfR (r monkey TfR: Sino Biological Inc.), crab-eating monkey TfR extracellular region with … (crab-eating monkey (Macaca fascicularis)).
T1 construct: Bought from Sino Biological; also called r monkey TfR-ECD (Histag); not shown: histidine tag at the N-terminus
T1 chain: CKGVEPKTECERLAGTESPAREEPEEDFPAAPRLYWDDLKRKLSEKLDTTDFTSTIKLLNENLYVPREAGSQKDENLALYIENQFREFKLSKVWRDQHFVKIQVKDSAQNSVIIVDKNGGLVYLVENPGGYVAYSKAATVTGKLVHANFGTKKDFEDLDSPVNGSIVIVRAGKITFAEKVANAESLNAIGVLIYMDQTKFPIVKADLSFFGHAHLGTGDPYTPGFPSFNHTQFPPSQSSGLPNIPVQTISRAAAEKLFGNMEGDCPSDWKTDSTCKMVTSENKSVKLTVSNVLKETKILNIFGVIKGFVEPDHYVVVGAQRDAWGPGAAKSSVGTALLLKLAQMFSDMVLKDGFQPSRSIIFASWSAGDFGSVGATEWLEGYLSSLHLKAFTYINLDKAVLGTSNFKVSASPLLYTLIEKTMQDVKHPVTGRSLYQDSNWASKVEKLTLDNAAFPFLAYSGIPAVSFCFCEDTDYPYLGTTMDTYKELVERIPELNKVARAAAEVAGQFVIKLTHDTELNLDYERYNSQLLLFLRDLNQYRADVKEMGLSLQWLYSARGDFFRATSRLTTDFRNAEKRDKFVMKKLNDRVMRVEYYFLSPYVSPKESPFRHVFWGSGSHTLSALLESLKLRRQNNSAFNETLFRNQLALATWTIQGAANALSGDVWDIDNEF
As to the method:
(§1) Each of the sample solutions prepared above by 2-fold dilution steps was added, 200 μL/well, to a 96-well plate, black (Greiner Bio-One Inc.). Each of the r human TfR-ECD (Histag) solution and the r monkey TfR-ECD (Histag) solutions prepared above was added, 200 μL/well, to predetermined wells. To respective wells for baseline, dissociation and washing were added HBS-P+, 200 μL/well. To wells for regeneration were added 10 mM Glycine-HCl (pH 1.7), 200 μL/well. To wells for activation was added 0.5 mM NiCl₂ solution, 200 μL/well. The plate and biosensor (Biosensor/Ni-NTA: ForteBio Inc., a division of Pall Corporation) were set in the prescribed positions of Octet RED96.
(§2) The measurement was performed at 25 to 30° C.
(§3) The affinity of the humanized anti-hTfR antibodies obtained in Example 13 to human and monkey TfRs was measured by the method described in Example 7.

Assay [2] concerns the target T2, recombinant human TfR (r human TfR: Sino Biological Inc.), hTfR extracellular region with a histidine tag at … (human, UniProt P02786 89-760).
T2 construct: Bought from Sino Biological; also called r human TfR-ECD (Histag); recombinant hTfR; not shown: histidine tag at the N-terminus
As to the method:
as §1, §2, §3

The target in assay [3] is T1, recombinant monkey TfR (r monkey TfR: …).
The target in assay [4] is T2, recombinant human TfR (r human TfR: …). The source holds these as a separate data set.

B1: humanized anti-hTfR antibody No. 3-2 (antibody, human IgG1, kappa)
light: DIVMTQSPLSLPVTPGEPASISCRSSQSLVHSNGNTYLHWYLQKPGQSPQLLIYKVSNRFSGVPDRFSGSGSGTDFTLKISRVEAEDVGVYYCSQSTHVPWTFGQGTKVEIKRTVAAPSVFIFPPSDEQLKSGTASVVCLLNNFYPREAKVQWKVDNALQSGNSQESVTEQDSKDSTYSLSSTLTLSKADYEKHKVYACEVTHQGLSSPVTKSFNRGEC
heavy: not shown
notes: IgG1
Broadly, the Kd is the equilibrium constant for the complex coming apart. By koff is commonly meant the first-order rate constant of dissociation. For orientation: kon means the rate constant with which the complex forms. On to B1, for which, in assay [1], the Kd amounted to 1.77 nM, the dissociation rate constant (koff) is 0.000876 s⁻¹ and the kon is 495000 M⁻¹ s⁻¹. For the same molecule, in assay [2], the Kd is 0.0239 nM, the off-rate constant (koff) amounted to 1.45e-05 s⁻¹ and the kon was found to be 606000 M⁻¹ s⁻¹.

B2: Fab GS3-AC (other)
light: DIVMTQTPLSLSVTPGQPASISCRSSQSLVHSNGNTYLHWYLQKPGQSPQLLIYKVSNRFSGVPDRFSGSGSGTDFTLKISRVEAEDVGVYYCSQSTHVPWTFGQGTKVEIKRTVAAPSVFIFPPSDEQLKSGTASVVCLLNNFYPREAKVQWKVDNALQSGNSQESVTEQDSKDSTYSLSSTLTLSKADYEKHKVYACEVTHQGLSSPVTKSFNRGEC
heavy: EVQLVQSGAEVKKPGESLKISCKGSGYSFMNYWLGWVRQMPGKGLEWMGDIYPGGDYPTYSEKFKVQVTISADKSISTAYLQLSSLKASDTAMYYCARSGNYDEVAYWGQGTLVTVSSASTKGPSVFPLAPSSKSTSGGTAALGCLVKDYFPEPVTVSWNSGALTSGVHTFPAVLQSSGLYSLSSVVTVPSSSLGTQTYICNVNHKPSNTKVDKKVEPKSCDKTHTGGGGSGGGGSGGGGSQHAPPWTEDCRKSTYPPSGPTYRGAVPWYTINLDLPPYKRWHELMLDKAPVLKVIVNSLKNMINTFVPSGKIMQVVDEKLPGLLGNFPGPFEEEMKGIAAVTDIPLGEIISFNIFYELFTICTSIVAEDKKGHLIHGRNMDFGVFLGWNINNDTWVITEQLKPLTVNLDFQRNNKTVFKASSFAGYVGMLTGFKPGLFSLTLNERFSINGGYLGILEWILGKKDVMWIGFLTRTVLENSTSYEEAKNLLTKTKILAPAYFILGGNQSGEGCVITRDRKESLDVYELDAKQGRWYVVQTNYDRWKHPFFLDDRRTPAKMCLNRTSQENISFETMYDVLSTKPVLNKLTVYTTLIDVTKGQFETYLRDCPDPCIGW
notes: also called Fab HC-GS3-AC
With B2, in assay [3], the Kd is about 11.8 nM, the koff is about 0.00327 s⁻¹ and the kon came out at 277000 M⁻¹ s⁻¹. In assay [4], the Kd was found to be 0.209 nM, the koff amounted to 0.000105 s⁻¹ and the kon was 501000 M⁻¹ s⁻¹.

B3: Fab GS3-FUCA1 (other)
light: DIVMTQTPLSLSVTPGQPASISCRSSQSLVHSNGNTYLHWYLQKPGQSPQLLIYKVSNRFSGVPDRFSGSGSGTDFTLKISRVEAEDVGVYYCSQSTHVPWTFGQGTKVEIKRTVAAPSVFIFPPSDEQLKSGTASVVCLLNNFYPREAKVQWKVDNALQSGNSQESVTEQDSKDSTYSLSSTLTLSKADYEKHKVYACEVTHQGLSSPVTKSFNRGEC
heavy: EVQLVQSGAEVKKPGESLKISCKGSGYSFMNYWLGWVRQMPGKGLEWMGDIYPGGDYPTYSEKFKVQVTISADKSISTAYLQLSSLKASDTAMYYCARSGNYDEVAYWGQGTLVTVSSASTKGPSVFPLAPSSKSTSGGTAALGCLVKDYFPEPVTVSWNSGALTSGVHTFPAVLQSSGLYSLSSVVTVPSSSLGTQTYICNVNHKPSNTKVDKKVEPKSCDKTHTGGGGSGGGGSGGGGSQPPRRYTPDWPSLDSRPLPAWFDEAKFGVFIHWGVFSVPAWGSEWFWWHWQGEGRPQYQRFMRDNYPPGFSYADFGPQFTARFFHPEEWADLFQAAGAKYVVLTTKHHEGFTNWPSPVSWNWNSKDVGPHRDLVGELGTALRKRNIRYGLYHSLLEWFHPLYLLDKKNGFKTQHFVSAKTMPELYDLVNSYKPDLIWSDGEWECPDTYWNSTNFLSWLYNDSPVKDEVVVNDRWGQNCSCHHGGYYNCEDKFKPQSLPDHKWEMCTSIDKFSWGYRRDMALSDVTEESEIISELVQTVSLGGNYLLNIGPTKDGLIVPIFQERLLAVGKWLSINGEAIYASKPWRVQWEKNTTSVWYTSKGSAVYAIFLHWPENGVLNLESPITTSTTKITMLGIQGDLKWSTDPDKGLFISLPQLPPSAVPAEFAWTIKLTGVK
notes: also called Fab HC-GS3-FUCA1
For B3, in assay [3], the Kd is 0.323 nM, the koff was 4.88e-05 s⁻¹ and the kon amounted to 151000 M⁻¹ s⁻¹. Further, in assay [4], the Kd was under 0.001 nM, the koff was under 1e-07 s⁻¹ and the on-rate constant (kon) turned out to be 282000 M⁻¹ s⁻¹.

B4: Fab GS3-LAMAN (other)
light: DIVMTQTPLSLSVTPGQPASISCRSSQSLVHSNGNTYLHWYLQKPGQSPQLLIYKVSNRFSGVPDRFSGSGSGTDFTLKISRVEAEDVGVYYCSQSTHVPWTFGQGTKVEIKRTVAAPSVFIFPPSDEQLKSGTASVVCLLNNFYPREAKVQWKVDNALQSGNSQESVTEQDSKDSTYSLSSTLTLSKADYEKHKVYACEVTHQGLSSPVTKSFNRGEC
heavy: EVQLVQSGAEVKKPGESLKISCKGSGYSFMNYWLGWVRQMPGKGLEWMGDIYPGGDYPTYSEKFKVQVTISADKSISTAYLQLSSLKASDTAMYYCARSGNYDEVAYWGQGTLVTVSSASTKGPSVFPLAPSSKSTSGGTAALGCLVKDYFPEPVTVSWNSGALTSGVHTFPAVLQSSGLYSLSSVVTVPSSSLGTQTYICNVNHKPSNTKVDKKVEPKSCDKTHTGGGGSGGGGSGGGGSGGYETCPTVQPNMLNVHLLPHTHDDVGWLKTVDQYFYGIKNDIQHAGVQYILDSVISALLADPTRRFIYVEIAFFSRWWHQQTNATQEVVRDLVRQGRLEFANGGWVMNDEAATHYGAIVDQMTLGLRFLEDTFGNDGRPRVAWHIDPFGHSREQASLFAQMGFDGFFFGRLDYQDKWVRMQKLEMEQVWRASTSLKPPTADLFTGVLPNGYNPPRNLCWDVLCVDQPLVEDPRSPEYNAKELVDYFLNVATAQGRYYRTNHTVMTMGSDFQYENANMWFKNLDKLIRLVNAQQAKGSSVHVLYSTPACYLWELNKANLTWSVKHDDFFPYADGPHQFWTGYFSSRPALKRYERLSYNFLQVCNQLEALVGLAANVGPYGSGDSAPLNEAMAVLQHHDAVSGTSRQHVANDYARQLAAGWGPCEVLLSNALARLRGFKDHFTFCQQLNISICPLSQTAARFQVIVYNPLGRKVNWMVRLPVSEGVFVVKDPNGRTVPSDVVIFPSSDSQAHPPELLFSASLPALGFSTYSVAQVPRWKPQARAPQPIPRRSWSPALTIENEHIRATFDPDTGLLMEIMNMNQQLLLPVRQTFFWYNASIGDNESDQASGAYIFRPNQQKPLPVSRWAQIHLVKTPLVQEVHQNFSAWCSQVVRLYPGQRHLELEWSVGPIPVGDTWGKEVISRFDTPLETKGRFYTDSNGREILERRRDYRPTWKLNQTEPVAGNYYPVNTRIYITDGNMQLTVLTDRSQGGSSLRDGSLELMVHRRLLKDDGRGVSEPLMENGSGAWVRGRHLVLLDTAQAAAAGHRLLAEQEVLAPQVVLAPGGGAAYNLGAPPRTQFSGLRRDLPPSVHLLTLASWGPEMVLLRLEHQFAVGEDSGRNLSAPVTLNLRDLFSTFTITRLQETTLVANQLREAASRLKWTTNTGPTPHQTPYQLDPANITLEPMEIRTFLASVQWKEVDG
notes: also called Fab HC-GS3-LAMAN
As for B4, in assay [3], the dissociation constant (Kd) is under 0.001 nM, the koff was under 1e-07 s⁻¹ and the on-rate constant (kon) was 357000 M⁻¹ s⁻¹. Besides, in assay [4], the equilibrium dissociation constant (Kd) is under 0.001 nM, the koff is under 1e-07 s⁻¹ and the kon amounted to 729000 M⁻¹ s⁻¹.

B5: humanized anti-hTfR antibody No. 3-3 (antibody, human IgG1, kappa)
light: DIVMTQTPLSLPVTPGEPASISCRSSQSLVHSNGNTYLHWYLQKPGQSPQLLIYKVSNRFSGVPDRFSGSGSGTDFTLKISRVEAEDVGVYYCSQSTHVPWTFGQGTRLEIKRTVAAPSVFIFPPSDEQLKSGTASVVCLLNNFYPREAKVQWKVDNALQSGNSQESVTEQDSKDSTYSLSSTLTLSKADYEKHKVYACEVTHQGLSSPVTKSFNRGEC
heavy: not shown
notes: IgG1
In the case of B5, in assay [1], the equilibrium dissociation constant (Kd) was 1.91 nM, the koff turned out to be 0.000932 s⁻¹ and the on-rate (kon) turned out to be 488000 M⁻¹ s⁻¹. In addition, in assay [2], the dissociation constant Kd was found to be 0.0209 nM, the dissociation rate constant (koff) worked out at 1.25e-05 s⁻¹ and the kon is 600000 M⁻¹ s⁻¹.

The values above are taken from patent publication US20250026846A1 (JCR PHARMACEUTICALS, published 2025).
